Square brackets hold non-standard residues; d marks the D form. Dap = NC[C@H](N)C(=O)O

In assay [1] the target is T1, mouse melanocortin 1 receptor (mouse, UniProt Q01727 1-315). Briefly: radioligand binding.
Assay [2] deals with T2, mouse melanocortin 3 receptor (mouse, UniProt P33033 1-323). As to the kind of experiment: cell-based or functional assay.
In assay [3] the target is T3, mouse melanocortin 5 receptor (mouse, UniProt P41149 1-325). Briefly: cell-based or functional assay.
In assay [4] the target is T4, mouse melanocortin 4 receptor (mouse, UniProt P56450 1-332). As to the kind of experiment: cell-based or functional assay.
Assay [5] concerns the target T1, mouse melanocortin 1 receptor. Briefly: cell-based or functional assay.
Assay [6] deals with T2, mouse melanocortin 3 receptor. Briefly: radioligand binding.
Assay [7] addresses T3, mouse melanocortin 5 receptor. Briefly: radioligand binding.
Assay [8] concerns the target T4, mouse melanocortin 4 receptor. Briefly: radioligand binding.
For assay [9], the target named is human melanocortin 4 receptor (human, UniProt P32245 1-332). Briefly: radioligand binding.
Sequence of human melanocortin 4 receptor (P32245 whole entry): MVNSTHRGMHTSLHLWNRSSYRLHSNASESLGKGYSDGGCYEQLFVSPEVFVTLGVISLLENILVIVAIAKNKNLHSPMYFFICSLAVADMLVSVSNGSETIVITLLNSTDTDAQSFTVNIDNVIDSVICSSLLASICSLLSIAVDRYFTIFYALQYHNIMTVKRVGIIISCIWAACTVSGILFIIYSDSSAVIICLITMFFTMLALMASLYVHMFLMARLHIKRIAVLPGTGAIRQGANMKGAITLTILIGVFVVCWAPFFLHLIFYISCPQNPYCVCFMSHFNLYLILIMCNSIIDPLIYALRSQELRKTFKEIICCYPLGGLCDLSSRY

T1 sequence (Q01727 whole entry): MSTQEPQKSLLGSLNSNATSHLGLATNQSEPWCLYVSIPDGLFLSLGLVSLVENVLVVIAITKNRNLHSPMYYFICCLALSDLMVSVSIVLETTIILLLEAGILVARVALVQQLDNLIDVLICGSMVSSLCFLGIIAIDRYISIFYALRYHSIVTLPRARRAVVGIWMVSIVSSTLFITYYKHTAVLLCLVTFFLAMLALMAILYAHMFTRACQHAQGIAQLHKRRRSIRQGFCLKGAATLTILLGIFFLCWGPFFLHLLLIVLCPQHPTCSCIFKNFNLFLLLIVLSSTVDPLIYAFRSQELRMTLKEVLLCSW
T3 sequence (P41149 whole entry): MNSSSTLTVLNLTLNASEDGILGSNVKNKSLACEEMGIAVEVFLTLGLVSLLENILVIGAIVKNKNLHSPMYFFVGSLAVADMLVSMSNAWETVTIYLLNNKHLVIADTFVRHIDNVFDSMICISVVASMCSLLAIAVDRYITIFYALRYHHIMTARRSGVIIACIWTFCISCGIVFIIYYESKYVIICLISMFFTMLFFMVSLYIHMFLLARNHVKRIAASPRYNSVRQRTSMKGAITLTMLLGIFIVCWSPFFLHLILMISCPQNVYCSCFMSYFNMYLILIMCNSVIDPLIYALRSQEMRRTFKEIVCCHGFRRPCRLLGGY
T2 sequence (P33033 whole entry): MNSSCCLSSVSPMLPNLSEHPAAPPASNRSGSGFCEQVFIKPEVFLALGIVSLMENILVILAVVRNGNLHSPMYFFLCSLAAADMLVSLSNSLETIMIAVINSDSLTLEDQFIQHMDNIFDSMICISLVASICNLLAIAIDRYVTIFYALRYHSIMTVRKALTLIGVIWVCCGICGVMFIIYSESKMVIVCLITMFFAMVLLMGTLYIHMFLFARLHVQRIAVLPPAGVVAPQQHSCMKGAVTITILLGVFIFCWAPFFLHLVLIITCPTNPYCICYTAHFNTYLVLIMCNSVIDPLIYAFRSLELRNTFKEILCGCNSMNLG
T4 sequence (P56450 whole entry): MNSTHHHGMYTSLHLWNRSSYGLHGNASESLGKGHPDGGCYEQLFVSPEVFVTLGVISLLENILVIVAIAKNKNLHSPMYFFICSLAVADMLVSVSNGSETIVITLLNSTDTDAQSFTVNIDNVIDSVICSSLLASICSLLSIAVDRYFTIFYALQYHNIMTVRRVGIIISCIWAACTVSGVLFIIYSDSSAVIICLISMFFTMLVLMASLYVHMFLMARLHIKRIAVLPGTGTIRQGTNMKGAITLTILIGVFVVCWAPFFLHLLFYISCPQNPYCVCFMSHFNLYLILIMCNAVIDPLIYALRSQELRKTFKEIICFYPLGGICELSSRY

For orientation: IC50 means the concentration needed to halve the response being measured. Read a low IC50 as inhibition by little substance. As to cyclo(PRFFNAF[dP]) [c[Pro-Arg-Phe-Phe-Asn-Ala-Phe-DPro]], the IC50 in assay [1] is 9 µM.

Turning to cyclo(PHFFNAF[dP]) [c[Pro-His-Phe-Phe-Asn-Ala-Phe-DPro]], the “agonist activity, cAMP AlphaScreen, HEK293 cells stably expressing the receptor” value (“agonist activity, cAMP AlphaScreen” for short) is over 100 µM in [2], over 100 µM in assay [3], over 100 µM in assay [4] and 23 % of maximal NDP-MSH response at 100 μM in assay [5]. Moreover, the IC50 in assay [6] is over 100 µM; in assay [7] it was over 100 µM; in assay [8], 6.7 µM; in assay [1], over 100 µM; in assay [9], 22 µM.

As to cyclo(PCFFNAF[dP]) [c[Pro-Cys-Phe-Phe-Asn-Ala-Phe-DPro]], the “agonist activity, cAMP AlphaScreen” value in assay [2] was over 100 µM; in assay [4], over 100 µM; in assay [5] it was 46 % of maximal NDP-MSH response at 100 μM. The IC50 in [6] is over 100 µM; in assay [7], over 100 µM; in assay [8] it was 1.9 µM; in [1], 24.6 µM; in assay [9] it was 19.3 µM.

For the molecule cyclo(PRYFNAF[dP]) [c[Pro-Arg-Tyr-Phe-Asn-Ala-Phe-DPro]], the “agonist activity, cAMP AlphaScreen” value in assay [2], in assay [4] and in assay [5] was over 100 µM each time. In addition, the IC50 in assay [6] is over 100 µM; in assay [7], over 100 µM; in assay [8], 2 µM; in [1], over 100 µM; in assay [9] it was 14.3 µM.

Regarding cyclo(PRFFNVF[dP]) [c[Pro-Arg-Phe-Phe-Asn-Val-Phe-DPro]], the “agonist activity, cAMP AlphaScreen” value in assay [2] is over 100 µM; in [3], over 100 µM; in assay [4] it was 16 % of maximal NDP-MSH response at 100 μM; in [5], 23 % of maximal NDP-MSH response at 100 μM. For the same molecule, the 50% inhibitory concentration (IC50) stood at 53 µM in assay [6]; 29 µM in assay [7]; 0.038 µM in assay [8]; 15 µM in [1]; 0.25 µM in [9].

Regarding cyclo(PRYF[Dap]AF[dP]) [c[Pro-Arg-Tyr-Phe-Dap-Ala-Phe-DPro]], the “agonist activity, cAMP AlphaScreen” value in assay [2] is over 100 µM; in [3], over 100 µM; in assay [4] it was over 100 µM; in [5] it was 48 % of maximal NDP-MSH response at 100 μM. Also, the IC50 worked out at 28 µM in assay [6]; 36 µM in assay [7]; 0.134 µM in [8]; 18 µM in assay [1]; 1.02 µM in assay [9].

For cyclo(PCFF[Dap]AF[dP]) [c[Pro-Cys-Phe-Phe-Dap-Ala-Phe-DPro]], the “agonist activity, cAMP AlphaScreen” value in [2] is 29 % of maximal NDP-MSH response at 100 μM; in assay [3], over 100 µM; in assay [4] it was 42 % of maximal NDP-MSH response at 100 μM; in assay [5], 4 µM. Moreover, the concentration for half-maximal inhibition (IC50) in assay [6] is 49 µM; in assay [7], over 100 µM; in assay [8] it was 10 µM; in assay [1], 33 µM; in [9], 15.7 µM.

With cyclo(PHFF[Dap]AF[dP]) [c[Pro-His-Phe-Phe-Dap-Ala-Phe-DPro]], the “agonist activity, cAMP AlphaScreen” value in assay [2] is over 100 µM; in assay [3], over 100 µM; in assay [4] it was over 100 µM; in [5], 56 % of maximal NDP-MSH response at 100 μM. The 50% inhibitory concentration (IC50) turned out to be 15 µM in assay [6]; 12 µM in assay [7]; 1 µM in assay [8]; 25 µM in assay [1]; 2.7 µM in assay [9].

B1: c[Pro-Arg-Phe-Phe-Dap-Ala-Phe-DPro] (peptide)
chain: PRFFXAFP
modifications: Dap (diaminopropionic acid) at position 5 (X in the letters); DPro at position 8; head-to-tail cyclised (macrocycle)
On to B1, for which the values for the IC50 in assay [6], in assay [7] and in assay [1] were 3.2 µM, 1.7 µM and 5.2 µM, respectively.

As for cyclo(PRFF[Dap]VF[dP]) [c[Pro-Arg-Phe-Phe-Dap-Val-Phe-DPro]], the “agonist activity, cAMP AlphaScreen” value was 27 % of maximal NDP-MSH response at 100 μM in [2], over 100 µM in [3], 37 % of maximal NDP-MSH response at 100 μM in assay [4] and 79 % of maximal NDP-MSH response at 100 μM in assay [5]. The concentration for half-maximal inhibition (IC50) in [6] came out at 10 µM; in [7] it was 2.7 µM; in assay [1], 8 µM; in [9] it was 0.0322 µM.

These data come from article PMC7250496 (Journal of medicinal chemistry, 2020).
